Measured values: patent US20240366718A1 (IMMUNOS THERAPEUTICS, published 2024)

T1: ANGPTL2 (R&D systems, 9795-AN) (UniProt Q9UKU9 23-493, limits assumed)
T1 construct: also called ANGTPL2
T1 sequence (looked up): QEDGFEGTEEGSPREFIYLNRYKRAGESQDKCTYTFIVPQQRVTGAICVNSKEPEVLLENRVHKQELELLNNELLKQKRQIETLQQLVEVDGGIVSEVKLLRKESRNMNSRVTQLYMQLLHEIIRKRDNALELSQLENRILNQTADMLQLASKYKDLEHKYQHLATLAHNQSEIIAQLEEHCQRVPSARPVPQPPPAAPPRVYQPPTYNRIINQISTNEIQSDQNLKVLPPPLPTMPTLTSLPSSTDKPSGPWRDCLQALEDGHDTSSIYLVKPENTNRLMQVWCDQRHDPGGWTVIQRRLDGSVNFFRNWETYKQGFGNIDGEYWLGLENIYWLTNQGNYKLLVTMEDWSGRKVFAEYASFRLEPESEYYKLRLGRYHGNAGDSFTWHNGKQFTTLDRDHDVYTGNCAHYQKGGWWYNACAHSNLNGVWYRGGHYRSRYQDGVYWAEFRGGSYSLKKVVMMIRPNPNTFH

B1: LILRB2 (c-terminally biotinylated, BPS Bioscience #100335) (receptor, human, UniProt Q8N423 22-460, looked up)
chain: QTGTIPKPTLWAEPDSVITQGSPVTLSCQGSLEAQEYRLYREKKSASWITRIRPELVKNGQFHIPSITWEHTGRYGCQYYSRARWSELSDPLVLVMTGAYPKPTLSAQPSPVVTSGGRVTLQCESQVAFGGFILCKEGEDEHPQCLNSQPHARGSSRAIFSVGPVSPNRRWSHRCYGYDLNSPYVWSSPSDLLELLVPGVSKKPSLSVQPGPVMAPGESLTLQCVSDVGYDRFVLYKEGERDLRQLPGRQPQAGLSQANFTLGPVSRSYGGQYRCYGAHNLSSECSAPSDPLDILITGQIRGTPFISVQPGPTVASGENVTLLCQSWRQFHTFLLTKAGAADAPLRLRSIHEYPKYQAEFPMSPVTSAHAGTYRCYGSLNSDPYLLSHPSEPLELVVSGPSMGSSPPPTGPISTPGPEDQPLTPTGSDPQSGLGRHLGV
modifications: C-terminal biotin
notes: Bought biotinylated protein; also called human LILRB2; biotinylated LILRB2
B2: ANGPTL7 (R&D systems, 914-AN) (ligand, UniProt O43827 27-346, looked up)
chain: QKLSKHKTPAQPQLKAANCCEEVKELKAQVANLSSLLSELNKKQERDWVSVVMQVMELESNSKRMESRLTDAESKYSEMNNQIDIMQLQAAQTVTQTSADAIYDCSSLYQKNYRISGVYKLPPDDFLGSPELEVFCDMETSGGGWTIIQRRKSGLVSFYRDWKQYKQGFGSIRGDFWLGNEHIHRLSRQPTRLRVEMEDWEGNLRYAEYSHFVLGNELNSYRLFLGNYTGNVGNDALQYHNNTAFSTKDKDNDNCLDKCAQLRKGGYWYNCCTDSNLNGVYYRLGEHNKHLDGITWYGWHGSTYSLKRVEMKIRPEDFKP
B3: human LILRB1 (receptor, UniProt Q8NHL6 24-458, looked up)
chain: GHLPKPTLWAEPGSVITQGSPVTLRCQGGQETQEYRLYREKKTALWITRIPQELVKKGQFPIPSITWEHAGRYRCYYGSDTAGRSESSDPLELVVTGAYIKPTLSAQPSPVVNSGGNVILQCDSQVAFDGFSLCKEGEDEHPQCLNSQPHARGSSRAIFSVGPVSPSRRWWYRCYAYDSNSPYEWSLPSDLLELLVLGVSKKPSLSVQPGPIVAPEETLTLQCGSDAGYNRFVLYKDGERDFLQLAGAQPQAGLSQANFTLGPVSRSYGGQYRCYGAHNLSSEWSAPSDPLDILIAGQFYDRVSLSVQPGPTVASGENVTLLCQSQGWMQTFLLTKEGAADDPWRLRSTYQSQKYQAEFPMGPVTSAHAGTYRCYGSQSSKPYLLTHPSDPLELVVSGPSGGPSSPTTGPTSTSGPEDQPLTPTGSDPQSGLGRH

How the values were obtained:
[1] = molecular target: T1, ANGPTL2 (R&D systems, 9795-AN); experiment: BLI, biotinylated LILRB2 sensors, ANGPTL2 titrated with or without prior incubation of the sensor with iosH2
[2] = molecular target: B1; experiment: BLI, biotinylated LILRB2 sensors, ANGPTL7 titrated with or without prior incubation of the sensor with iosH2
[3] = molecular target: T2, HLA-B57(A46E/V97R).β2m (HLA-B57 A46E/V97R IgG4 fusion protein associated with β2m) (human; homo sapiens); experiment: BLI
T2 construct: Complex secreted from CHO cells co-transfected with the fusion protein and β2m; also called iosH2; IosH2

Q: Does B1 bind [1]?
A: binds

Q: Does B2 bind [2]?
A: binds

Q: Does B3 bind [3]?
A: binds
